# Experimental data taken from patent publication US20180128830A1, “DETECTION OF HUMAN CYTOMEGALOVIRUS IN BREAST CANCER” (priority 2015, published 2018).
# B1: cmvIL-10 (protein)
# chain: ATTTTIKNTKPQCRPEDYATRLQDLRVTFHRVKPTLQREDDYSVWLDGTVVKGCWGCSVMDWLLRRYLEIVFPAGDHVYPGLKTELHSMRSTLESIYKDMRQCPLLGCGDKSVISRLSQEAERKSDNGTRKGLSELDTLFSRLEEYLHSRK
# Tests used:
# [1] = system: MDA-MB-231 cells; assay: DNA synthesis, BrdU Cell Proliferation ELISA; assay type: cell-based, human; conditions: 100 ng/ml, vs control
# Method: (§1) Cells were seeded into 96-well dishes at a density of 1×10^4 cell per well in complete medium with varying doses of cmvIL-10, and then cell viability measured at the indicated time points using the Cell Titer Glo Assay kit according to manufacturer's instructions (Promega). DNA synthesis was measured in cells prepared in the same way using the BrdU Cell Proliferation ELISA Kit (Roche, Basel, Switzerland). For experiments using inhibitors, cells were cultivated in 96-well dishes as above with a final concentration of 10 μM inhibitor and BrdU incorporation evaluated after 72 hrs. For cell counts, cells were seeded into 6-well plates at a density of 2×10^5 cells per well, harvested via trypsinization, and counted using a hemacytometer at the indicated time points. The TACS Annexin V-FITC Detection Kit (Trevigen, Gaithersburg, Md.) was used to stain cells harvested from 70% confluent T75 flasks that had been treated with 100 μM etoposide for 48 hrs in the presence or absence of 100 ng/ml cmvIL-10. Cells were then analyzed via flow cytometry to detect fluorescence. For viability assays, Cell Titer Glo reagent was utilized to quantify cells that had been seeded into 96-well dishes at a density of 1×10^4 cell per well in complete medium with varying doses of etoposide in the presence or absence of 100 ng/ml cmvIL-10 as indicated
# [2] = system: MDA-MB-231 cells; assay: Cell viability under etoposide, Cell Titer Glo; assay type: cell-based, human
# Method: as §1
# [3] = target: T1, CXCR4 (Homo sapiens, UniProt P61073); assay: Calcium flux assay in HEK293 cells; assay type: cell-based
# T1 construct: HEK293 cells, which endogenously express both CXCR4 and IL-10R; endogenous in cells; host or cells: HEK293
# T1 sequence (P61073 whole entry): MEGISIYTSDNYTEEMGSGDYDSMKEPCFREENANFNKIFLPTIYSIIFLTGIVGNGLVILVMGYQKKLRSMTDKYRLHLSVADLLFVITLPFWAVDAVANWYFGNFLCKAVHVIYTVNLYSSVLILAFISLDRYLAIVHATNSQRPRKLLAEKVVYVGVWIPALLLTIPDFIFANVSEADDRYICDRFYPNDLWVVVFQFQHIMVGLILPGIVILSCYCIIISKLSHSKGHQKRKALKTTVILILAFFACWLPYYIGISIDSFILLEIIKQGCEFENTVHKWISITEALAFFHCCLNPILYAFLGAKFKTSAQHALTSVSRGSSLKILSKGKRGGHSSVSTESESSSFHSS
# Method: Calcium flux assays were performed as described (Arnolds K L, et al. Virology 439:122-131.). Briefly, cells were resuspended in 2 mls calcium assay buffer (RPMI with 25 mM of HEPES) at a density of 5×10^5 cells/ml per sample. Each sample was labeled with 2 μl of Fluo-4AM (Invitrogen, Grand Island, N.Y.), wrapped in foil, at 37° C. for 30 minutes with agitation at 10-minute intervals. Following incubation, each sample was pelleted, resuspended in calcium assay buffer, and transferred into an eppendorf tube for flow cytometry using the BD C6 Accuri. Fluorescence intensity of each sample was measured for 20 seconds to establish baseline, then stimulus (CXCL12, in the presence or absence of cmvIL-10, as indicated) was added via micropipetting directly into the sample while fluorescence intensity was measured. Kinetic fluorescence intensity analysis was performed with FlowJo software v9.4.9 (FlowJo, Ashland, Oreg.). Purified recombinant cmvIL-10 was purchased from R&D Systems (Minneapolis, Minn.) and purified recombinant CXCL12 was purchased from Peprotech (Rocky Hill, N.J.). For each calcium flux assay, ionomycin (Sigma) was a positive control for Fluo-4AM loading and PBS served as a negative control for the addition of stimulus.
# [4] = system: HEK293 cells; assay: Transwell migration toward CXCL12; assay type: cell-based, human; conditions: 0.1 μg/ml cmvIL-10 in lower chamber, 4 hours
# Method: Transwell migration assays were performed by suspending cells at a density of 5×10^4 cells/ml in migration media (MEM or RPMI […] media plus 0.5% FBS). A total of 75 μl of cells was placed onto the upper chamber of a 96-well transwell system with 5.0 μm pores (Corning-Costar, Corning, N.Y.). The lower chamber contained 235 μl of migration media with CXCL12 plus or minus cmvIL-10 as indicated. Plates were incubated for four hours at 37° C., and then cells that traversed through the filter into the lower chamber were quantified via the addition of CellTitre-Glo reagent (Promega, Madison, Wis.) according to manufacturer's instructions.
# [5] = system: MDA-MB-231 cells; assay: Matrigel invasion toward EGF; assay type: cell-based, human; conditions: 100 ng/ml, 22 hours
# Method: Transwell migration was monitored using 96-well BD Fluoroblock plates with 8 μm filters (Corning, Inc., Corning, N.Y.). Cells were harvested and suspended at density of 2.0×10^6 cells/ml in migration media (L-15+1% FBS), and a volume of 75 μl cell suspension was placed on top of the filter inserts. Where indicated, IL-10R neutralizing antibody was added at a concentration of 30 μg/ml. […] After 5 hrs at 37° C., cells that traversed the filter and entered the lower chamber were quantified by the addition of Cell Titer Glo (Promega, Madison, Wis.) using a Turner Veritas luminometer. For invasion, 96-well matrigel-coated BD Fluoroblock transwell invasion plates (Corning) were used. Invasion plates were re-hydrated with warm media at 37° C. for 3 hrs and then 75 μl cell suspension loaded onto the hydrated filters as described above. Where indicated, 10 μM Stat3 inhibitor was included with cells in the top chamber; cmvIL-10, hIL-10 or conditioned medium was present in both chambers. […] At harvest, cells that had degraded the matrigel and entered the lower chamber were quantified by the addition of Cell Titer Glo as above.
# [6] = system: MTSS1; assay: MTSS1 immunoblotting; assay type: cell-based, human; conditions: 10 ng/mL, beyond 24 hours
# Method: Confluent T-75 flasks of MDA-MB-231 cells were treated with 10 ng/mL cmvIL-10 (R&D systems) for the indicated times, then scraped and harvested into cell lysis buffer (150 mM NaCl, 20 mM HEPES, 0.5% Triton-X-100, 1.0 mM NaOV4, 1.0 mM EDTA, 0.1% NaN3) containing 1× protease inhibitors (Calbiochem). Cell lysates were clarified via centrifugation, heated at 70° C. for 10 min in reducing buffer, and the proteins separated on a 4-12% Tris-Base SDS-PAGE gel (Life Technologies, Grand Island, N.Y.). After transfer to nitrocellulose, the membrane was incubated in blocking solution (5% milk+TBS) for 1 hr at room and then probed with primary antibody: 1:1000 dilution for MMP-3 or MTSS-1 antibodies (Santa Cruz), or MAPK antiserum (Cell Signaling Tech, Danvers, Mass.), in blocking solution overnight, oscillating on a platform rocker at 4.0° C. After three washes, the membranes were incubated with a 1:2000 dilution of appropriate AP-conjugated secondary antibody on a platform rocker at room temperature for 1 hr. Protein bands were detected using western blue stabilized AP substrate (Promega, Madison, Wis.). For zymography, cell lysates were denatured in SDS buffer under non-reducing conditions without heat, and run on a 4-16% Zymogram gel using Tris-Glycine SDS running buffer according to manufacturer's instructions. […]
molecule,measurement,setting,value
B1,rate of DNA synthesis (BrdU incorporation),[1],significantly higher
same,cell viability over time,"[2]; 10 μM etoposide, 100 ng/ml cmvIL-10",able to overcome etoposide-induced effects over time and proliferate robustly
same,overall cell viability,"[2]; varying doses of etoposide, 100 ng/ml cmvIL-10, 48 hours",increased overall cell viability
same,peak fluorescence intensity of calcium mobilization,[3]; CXCL12 0.1 μg/ml plus cmvIL-10 0.1 μg/ml,significantly higher
same,calcium mobilization,[3]; cmvIL-10 alone,did not induce calcium mobilization
same,migration toward CXCL12,[4],significantly increased
same,invasion through matrigel compared with hIL-10,[5],significantly greater extent than hIL-10
same,invasion through matrigel toward EGF,[5],strong enhancer of cell invasion
same,MTSS1 protein (82 kD band),[6],significant decrease in MTSS1 expression
